Protein stability index data for 94 variants are collected here from the supplement of paper PMC10567573.

B1: ESRRA (parent)
chain: SLPLQDELAFAEDLVLDEEGARAA
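Note: lentivirally expressed fusions sorted by FACS into six bins by GFP to DsRed ratio, PSI derived from sequencing read proportions per bin multiplied by bin number.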

In the data set the parent is B1. As to the kind of experiment: protein stability index of a GFP-peptide fusion (GPS, HEK-293T) (PSI 1-6); higher = more stable. Particulars: c terminus: a fixed tail appended.
On to SLPLQDELAFARDLVLDEEGARAA, for which the protein stability index is 4.36.
With SLPLQDELAFAIDLVLDEEGARAA the figure was 3.8.
As for SLPLQDELAFAPDLVLDEEGARAA, the protein stability index is 5.03.
With SLPLQDELAFATDLVLDEEGARAA, the protein stability index came to 5.41.
Regarding SLPLQDELAFADDLVLDEEGARAA, the protein stability index is 5.35.
Take SLPLQDELAFASDLVLDEEGARAA: the protein stability index turned out to be 5.26.
In the case of SLPLQDELAFACDLVLDEEGARAA, the protein stability index turned out to be 5.04.
Take SLPLQDELAFPEDLVLDEEGARAA: the protein stability index was 5.53.
With SLPLQDELAFCEDLVLDEEGARAA the figure was 5.35; with SLPLQDELAFREDLVLDEEGARAA, 5.65; with SLPLQDELAFFEDLVLDEEGARAA, 4.89.
As to SLPLQDELAFMEDLVLDEEGARAA, the protein stability index worked out at 5.4.
With SLPLQDELAFLEDLVLDEEGARAA the figure was 4.97; with SLPLQDELAFAEDLVLDEEGQRAA, 2.29.
Take SLPLQDELAFAEDLVLDEEGVRAA: the protein stability index is 3.14.
As to SLPLQDELAFAEDLVLDEEGCRAA, the protein stability index worked out at 3.01.
With SLPLQDELAFAEDLVLDEEGWRAA the figure was 3.2.
Then SLPLQDELAFAEDLVLDEEGYRAA, with 2.63.
As to SLPLQDELAFAEDLVLDEEGLRAA, the protein stability index turned out to be 3.63.
On to SLPLQDELAFAESLVLDEEGARAA, for which the protein stability index is 3.37.
Consider SLPLQDELAFAEELVLDEEGARAA, for which the protein stability index was 2.92.
For SLPLQDELAFAEILVLDEEGARAA, the protein stability index was 1.96.
Take SLPLQDELAFAEALVLDEEGARAA: the protein stability index turned out to be 3.48.
On to SLPLQDELAFAERLVLDEEGARAA, for which the protein stability index is 3.68.
With SLPLQDELAFAEWLVLDEEGARAA, the protein stability index was found to be 3.31.
Regarding SLPLQDELAFAEHLVLDEEGARAA, the protein stability index came to 2.98.
Then SLPLQDELLFAEDLVLDEEGARAA, with 3.45; and SLPLQDELKFAEDLVLDEEGARAA, with 2.63.
On to SLPLQDELQFAEDLVLDEEGARAA, for which the protein stability index came to 3.61.
Then SLPLQDELSFAEDLVLDEEGARAA, with 3.42; and SLPLQDELHFAEDLVLDEEGARAA, with 3.67.
In the case of SLPLQDELNFAEDLVLDEEGARAA, the protein stability index turned out to be 3.88.
With SLPLQDELVFAEDLVLDEEGARAA the figure was 4.88.
With SLPLQDELDFAEDLVLDEEGARAA, the protein stability index was 5.39.
Then SLPLQDELAFAEDLVLDETGARAA, with 2.71; and SLPLQDELAFAEDLVLDECGARAA, with 2.79; and SLPLQDELAFAEDLVLDESGARAA, with 2.79.
Then SLPLQDELAFAEDLVLDEGGARAA, with 1.75; and SLPLQDELAFAEDLVLDEQGARAA, with 2.56; and SLPLQDELAFAEDLVLDEYGARAA, with 2.77.
As for SLPLQDELAFAEDLVLDEHGARAA, the protein stability index stood at 2.33.
With SLPLQDELAFAEDLVLDEMGARAA, the protein stability index was 1.85.
In the case of SLPLQDELAFAEDLVLDEKGARAA, the protein stability index is 2.89.
On to SLPLQDELAFAEDLVLDERGARAA, for which the protein stability index worked out at 2.02.
Regarding SLPLQDELAFAEDLVLDENGARAA, the protein stability index was 2.63.
On to SLPLQDEWAFAEDLVLDEEGARAA, for which the protein stability index worked out at 5.29.
In the case of SLPLQDEMAFAEDLVLDEEGARAA, the protein stability index came to 2.99.
On to SLPLQDETAFAEDLVLDEEGARAA, for which the protein stability index is 4.84.
In the case of SLPLQDEFAFAEDLVLDEEGARAA, the protein stability index was determined as 5.13.
As to SLPLQDEAAFAEDLVLDEEGARAA, the protein stability index was 5.07.
In the case of SLPLQDERAFAEDLVLDEEGARAA, the protein stability index came out at 5.66.
SLPLQDENAFAEDLVLDEEGARAA: the protein stability index is 5.54.
In the case of SLPLQDESAFAEDLVLDEEGARAA, the protein stability index worked out at 5.63.
In the case of SLPLQDEPAFAEDLVLDEEGARAA, the protein stability index was 5.3.
Turning to SLPLQDEGAFAEDLVLDEEGARAA, the protein stability index came to 5.2.
In the case of SLPLQDELAFAEDLVLDEEGAGAA, the protein stability index turned out to be 3.13.
Consider SLPLQDELAFAEDLVLDEEGAQAA, for which the protein stability index is 3.45.
For SLPLQDELAFAEDLVLDEEGAIAA, the protein stability index worked out at 2.94.
For the variant SLPLQDELAFAEDLVLDEEGAYAA, the protein stability index was found to be 3.01.
Then SLPLQDELAFAEDLVLDEEGADAA, with 4.19.
For the variant SLPLQDELAFAEDLVLDEEGAFAA, the protein stability index stood at 3.24.
Then SLPLQDELAFAEDLVLDEEGANAA, with 3.36; and SLPLQDELAFAEDLVLDEEGATAA, with 4.45; and SLPLQDELAFAEDLVLDEEGACAA, with 3.2.
In the case of SLPLQDELAFAEDLVLDEEGARIA, the protein stability index amounted to 2.87.
For the variant SLPLQDELAFAEDLVLDEEGARYA, the protein stability index was 2.62.
On to SLPLQDELAFAEDLVLDEEGARLA, for which the protein stability index stood at 2.56.
In the case of SLPLQDELAFAEDLVLDEEGARSA, the protein stability index came out at 3.42.
Then SLPLQDELAFAEDLVLDEEGARNA, with 3.21; and SLPLQDELAFAEDLVLDEEGARRA, with 2.83; and SLPLQDELAFAEDLVLDEEGARVA, with 3.21.
With SLPLQDELAFAEDLVLDEEGARTA the figure was 3.08; with ILPLQDELAFAEDLVLDEEGARAA, 3.03.
Consider DLPLQDELAFAEDLVLDEEGARAA, for which the protein stability index was determined as 3.07.
For the variant ALPLQDELAFAEDLVLDEEGARAA, the protein stability index is 3.94.
With ELPLQDELAFAEDLVLDEEGARAA the figure was 2.94; with WLPLQDELAFAEDLVLDEEGARAA, 2.73.
With HLPLQDELAFAEDLVLDEEGARAA the figure was 2.89; with TLPLQDELAFAEDLVLDEEGARAA, 3.01; with SLRLQDELAFAEDLVLDEEGARAA, 4.46.
For the variant SLSLQDELAFAEDLVLDEEGARAA, the protein stability index stood at 5.28.
For SLGLQDELAFAEDLVLDEEGARAA, the protein stability index stood at 4.7.
As for SLWLQDELAFAEDLVLDEEGARAA, the protein stability index turned out to be 4.32.
Take SLHLQDELAFAEDLVLDEEGARAA: the protein stability index was found to be 4.45.
As to SLALQDELAFAEDLVLDEEGARAA, the protein stability index is 4.97.
Then SLILQDELAFAEDLVLDEEGARAA, with 3.93; and SLDLQDELAFAEDLVLDEEGARAA, with 4.14; and SLPLQDVLAFAEDLVLDEEGARAA, with 2.03.
As to SLPLQDRLAFAEDLVLDEEGARAA, the protein stability index amounted to 4.96.
With SLPLQDFLAFAEDLVLDEEGARAA, the protein stability index worked out at 3.92.
Take SLPLQDDLAFAEDLVLDEEGARAA: the protein stability index came out at 3.63.
Consider SLPLQDKLAFAEDLVLDEEGARAA, for which the protein stability index was found to be 4.84.
Turning to SLPLQDHLAFAEDLVLDEEGARAA, the protein stability index worked out at 3.94.
Consider SLPLQDCLAFAEDLVLDEEGARAA, for which the protein stability index was determined as 3.5.
